# Tests used:
# [1] = test system: VarR (Vibrio cholerae O1 biovar El Tor N16961); assay: competition; details: 50 mM Tris-HCl pH 7.5, 5 mM EDTA, 1 mM DTT, 100 ug/ml BSA, 5% glycerol, on ice 10 min; 4% polyacrylamide gel
# [2] = target: VarF ATPase subunit of the VarDEF ABC transporter (Vibrio cholerae (strain CVD101 chromosomal DNA)); assay: SEC; Superdex200 PrepGrade HiLoad 16/60, 20 mM Tris-HCl pH 8.25, 50 mM NaCl, 10% glycerol, 1 ml/minute; Mr from a calibration curve of standards
# [3] = target: VarG metallo-β-lactamase (Vibrio cholerae (strain CVD101 chromosomal DNA)); assay: intact protein ESI Q-TOF mass spectrometry; putative dimer peak from SEC infused directly, positive ion mode, MaxEnt1 deconvolution; 10 μg/mL in the methods, 50 μg/mL in the legend
# [4] = target: VarG metallo-β-lactamase (Vibrio cholerae (strain CVD101 chromosomal DNA)); assay: AUC; sedimentation velocity, 42,000 rpm, 20°C, 280 nm, SEDFIT c(s, fr) and c(s, M)
# [5] = target: VarG metallo-β-lactamase (Vibrio cholerae (strain CVD101 chromosomal DNA)); assay: AUC
# [6] = target: VarG metallo-β-lactamase (Vibrio cholerae (strain CVD101 chromosomal DNA)); assay: SEC; Superdex200 PrepGrade HiLoad 16/60, 20 mM Tris-HCl pH 8.25, 50 mM NaCl, 10% glycerol, 1 ml/minute; Mr from a calibration curve of standards
substance,measurement,setting,value
30 bp varR-varG IR,binding signal,[1],1 ng
VarF ATPase subunit of the VarDEF ABC transporter (enzyme),stoichiometry N,[2],2
VarG metallo-β-lactamase (enzyme),stoichiometry N,[3],2
same,stoichiometry N,[4],2
same,stoichiometry N,[5],2
same,stoichiometry N,[6],2

# Reference: paper PMC5595328
